The numbers were not newly measured in publication PMC6943629, “Binding of Gold(III) Porphyrin by the Pro-metastatic Regulatory Protein Human Galectin-3” (Molecules, 2019), which cites them from elsewhere.

One series deals with MUC18 (Homo sapiens) (UniProt P43121). Description: bio-layer interferometry.
In series [1] the target is asialofetuin (Bos taurus) (UniProt P12763).
Sequence of asialofetuin (Bos taurus) (P12763 19-359): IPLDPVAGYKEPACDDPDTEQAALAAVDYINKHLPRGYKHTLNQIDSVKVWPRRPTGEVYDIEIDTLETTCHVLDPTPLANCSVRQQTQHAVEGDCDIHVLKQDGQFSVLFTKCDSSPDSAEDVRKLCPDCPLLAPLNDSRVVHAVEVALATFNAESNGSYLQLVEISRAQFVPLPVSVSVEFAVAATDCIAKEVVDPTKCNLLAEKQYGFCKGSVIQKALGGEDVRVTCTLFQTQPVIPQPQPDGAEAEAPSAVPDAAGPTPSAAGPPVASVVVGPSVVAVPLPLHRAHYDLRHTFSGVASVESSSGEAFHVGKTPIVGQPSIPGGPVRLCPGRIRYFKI

Sequence of galectin-3 (P17931 2-250): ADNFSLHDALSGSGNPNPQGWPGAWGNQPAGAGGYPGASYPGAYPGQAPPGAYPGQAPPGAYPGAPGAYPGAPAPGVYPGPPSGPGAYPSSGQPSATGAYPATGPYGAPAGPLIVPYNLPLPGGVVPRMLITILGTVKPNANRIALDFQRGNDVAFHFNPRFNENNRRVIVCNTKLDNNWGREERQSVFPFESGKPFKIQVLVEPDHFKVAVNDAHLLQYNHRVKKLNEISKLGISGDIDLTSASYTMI
Sequence of MUC18 (Homo sapiens) (P43121 24-646): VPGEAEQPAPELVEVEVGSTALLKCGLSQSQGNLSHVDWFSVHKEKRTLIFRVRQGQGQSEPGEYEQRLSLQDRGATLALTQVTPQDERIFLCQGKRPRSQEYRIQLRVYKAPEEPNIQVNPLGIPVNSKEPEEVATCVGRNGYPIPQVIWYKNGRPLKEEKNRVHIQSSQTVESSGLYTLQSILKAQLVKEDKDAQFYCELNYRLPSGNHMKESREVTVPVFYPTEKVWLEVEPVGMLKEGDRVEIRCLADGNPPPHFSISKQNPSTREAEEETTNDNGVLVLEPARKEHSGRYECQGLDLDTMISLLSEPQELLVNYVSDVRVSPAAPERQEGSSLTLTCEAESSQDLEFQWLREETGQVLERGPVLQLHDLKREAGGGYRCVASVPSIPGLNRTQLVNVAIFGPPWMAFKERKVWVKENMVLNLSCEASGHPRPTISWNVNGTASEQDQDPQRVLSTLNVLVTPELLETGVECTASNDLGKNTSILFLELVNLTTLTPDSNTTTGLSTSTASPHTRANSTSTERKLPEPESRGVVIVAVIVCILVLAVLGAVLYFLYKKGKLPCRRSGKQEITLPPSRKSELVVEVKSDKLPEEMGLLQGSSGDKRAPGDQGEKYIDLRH

For the substance galectin-3 (from UniProt P17931), the Kd (commonly a measure of binding affinity in units of concentration) was 430 nM with MUC18 (Homo sapiens) and 720 nM in series [1].
